In publication PMC11864179 (Science Advances, 2025):
Non-standard residues stand in square brackets, D forms with d. No end group written: not given here. *: point of attachment. Biotin = O=C1N[C@H]2[C@H](CS[C@H]2CCCCC(=O)*)N1; pS = N[C@@H](COP(=O)(O)O)C(=O)O

Molecular target: T1, HTP-3–HIM-3 complex containing His6-tagged HTP-3 and wild-type HIM-3 (C. elegans, UniProt O01820 2-739; G5EBG0 1-291)
T1 sequence (looked up) 1: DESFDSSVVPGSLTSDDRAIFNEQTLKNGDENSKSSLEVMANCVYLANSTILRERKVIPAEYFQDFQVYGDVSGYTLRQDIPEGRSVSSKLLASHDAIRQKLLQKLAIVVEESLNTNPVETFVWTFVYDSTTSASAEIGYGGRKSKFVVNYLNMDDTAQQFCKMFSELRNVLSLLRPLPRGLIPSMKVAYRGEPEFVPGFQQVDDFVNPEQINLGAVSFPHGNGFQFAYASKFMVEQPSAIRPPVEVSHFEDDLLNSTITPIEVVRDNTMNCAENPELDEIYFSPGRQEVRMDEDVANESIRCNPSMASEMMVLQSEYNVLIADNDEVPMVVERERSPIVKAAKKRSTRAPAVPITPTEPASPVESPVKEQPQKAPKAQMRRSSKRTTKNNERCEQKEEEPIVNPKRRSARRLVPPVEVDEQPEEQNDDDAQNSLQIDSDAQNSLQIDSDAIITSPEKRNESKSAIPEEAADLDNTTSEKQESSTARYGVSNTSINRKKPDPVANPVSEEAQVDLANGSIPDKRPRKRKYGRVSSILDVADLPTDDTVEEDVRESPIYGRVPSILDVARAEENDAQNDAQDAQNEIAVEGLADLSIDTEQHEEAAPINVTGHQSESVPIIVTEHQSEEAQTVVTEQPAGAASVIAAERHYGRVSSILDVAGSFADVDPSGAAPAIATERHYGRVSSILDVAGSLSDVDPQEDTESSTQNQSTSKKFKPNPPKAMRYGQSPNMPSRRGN
T1 sequence (looked up) 2: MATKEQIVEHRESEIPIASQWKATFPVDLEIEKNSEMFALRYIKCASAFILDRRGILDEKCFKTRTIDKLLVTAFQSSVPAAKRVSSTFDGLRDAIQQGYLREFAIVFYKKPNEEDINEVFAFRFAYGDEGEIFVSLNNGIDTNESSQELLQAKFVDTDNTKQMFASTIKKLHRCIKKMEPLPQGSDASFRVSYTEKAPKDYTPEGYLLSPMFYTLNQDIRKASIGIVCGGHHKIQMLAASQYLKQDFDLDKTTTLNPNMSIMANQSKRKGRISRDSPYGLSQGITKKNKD
Experiment: pull-down

B1: SYP-5 peptide spanning residues 528 to 547, phosphorylated at S541 (peptide)
peptide: Biotin-DDDLNDEEGDADQ[pS]IWGSDD
binding result: binds
